The values below come from patent publication US20150306234.

One series deals with T1, BDD FVIII mutein F2093C.
T1 sequence: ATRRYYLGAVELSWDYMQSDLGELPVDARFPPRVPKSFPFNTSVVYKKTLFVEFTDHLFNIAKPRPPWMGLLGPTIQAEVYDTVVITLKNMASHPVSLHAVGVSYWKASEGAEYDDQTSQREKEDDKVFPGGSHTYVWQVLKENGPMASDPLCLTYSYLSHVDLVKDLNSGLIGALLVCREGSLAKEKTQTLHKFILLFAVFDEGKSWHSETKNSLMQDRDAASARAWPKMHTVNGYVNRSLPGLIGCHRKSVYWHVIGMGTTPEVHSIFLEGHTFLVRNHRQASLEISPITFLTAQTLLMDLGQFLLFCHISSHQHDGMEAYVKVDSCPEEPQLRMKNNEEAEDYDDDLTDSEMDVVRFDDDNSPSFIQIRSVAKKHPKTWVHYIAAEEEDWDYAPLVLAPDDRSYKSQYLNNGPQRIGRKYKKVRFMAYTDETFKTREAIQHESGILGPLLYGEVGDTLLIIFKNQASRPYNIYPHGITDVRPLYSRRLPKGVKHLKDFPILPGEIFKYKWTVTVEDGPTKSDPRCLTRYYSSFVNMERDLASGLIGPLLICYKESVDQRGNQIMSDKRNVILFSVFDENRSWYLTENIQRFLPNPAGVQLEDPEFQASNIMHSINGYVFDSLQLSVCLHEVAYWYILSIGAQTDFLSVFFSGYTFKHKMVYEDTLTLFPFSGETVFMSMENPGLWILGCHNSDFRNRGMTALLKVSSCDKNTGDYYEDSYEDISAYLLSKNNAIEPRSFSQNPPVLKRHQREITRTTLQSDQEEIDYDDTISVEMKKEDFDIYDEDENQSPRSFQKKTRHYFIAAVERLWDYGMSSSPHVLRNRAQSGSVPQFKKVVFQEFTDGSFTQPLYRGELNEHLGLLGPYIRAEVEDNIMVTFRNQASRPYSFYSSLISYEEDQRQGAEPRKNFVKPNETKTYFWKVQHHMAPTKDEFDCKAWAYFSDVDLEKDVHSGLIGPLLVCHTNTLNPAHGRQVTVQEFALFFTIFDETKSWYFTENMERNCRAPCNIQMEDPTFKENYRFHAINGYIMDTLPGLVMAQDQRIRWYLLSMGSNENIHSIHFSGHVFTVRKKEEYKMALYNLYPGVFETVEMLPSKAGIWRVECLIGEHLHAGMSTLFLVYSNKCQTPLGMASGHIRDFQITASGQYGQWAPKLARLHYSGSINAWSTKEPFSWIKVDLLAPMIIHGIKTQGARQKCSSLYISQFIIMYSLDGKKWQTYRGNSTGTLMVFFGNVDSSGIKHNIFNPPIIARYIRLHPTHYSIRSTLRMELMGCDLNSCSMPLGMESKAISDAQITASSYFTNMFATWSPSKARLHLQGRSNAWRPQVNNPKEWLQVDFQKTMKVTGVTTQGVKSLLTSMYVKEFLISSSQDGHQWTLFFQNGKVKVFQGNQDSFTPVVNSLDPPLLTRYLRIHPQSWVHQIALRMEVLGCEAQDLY

In a further series the test system is T2, BDD FVIII mutein S2094C.
T2 sequence: T1 sequence with C1199F, S1200C

Numbering of substitutions follows the chain as printed.

On to “thrombin (Haematologic Technologies, Essex Junction, Vt.)”, for which the “thrombin cleavage, SDS-PAGE with silver staining” value in the series with BDD FVIII mutein F2093C is “Thrombin digestion of the muteins and control produced the expected cleavage fragments”; with BDD FVIII mutein S2094C, “Thrombin digestion of the muteins and control produced the expected cleavage fragments”.
